These results are taken from US20150037348A1 (AbbVie / Abbott, published 2015).

The chains are these.
T1: human IL-12 (human, UniProt P29459 23-219; P29460 23-328)
T1 construct: recombinant human IL-12 heterodimer (p35/p40, disulfide-linked); also called hIL-12; rhIL-12
T1 sequence (looked up) 1: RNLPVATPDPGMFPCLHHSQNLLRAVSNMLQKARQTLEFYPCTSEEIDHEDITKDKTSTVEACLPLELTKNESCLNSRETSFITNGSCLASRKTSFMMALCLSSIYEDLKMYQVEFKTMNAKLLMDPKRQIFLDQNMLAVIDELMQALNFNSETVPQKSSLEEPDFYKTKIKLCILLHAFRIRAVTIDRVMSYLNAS
T1 sequence (looked up) 2: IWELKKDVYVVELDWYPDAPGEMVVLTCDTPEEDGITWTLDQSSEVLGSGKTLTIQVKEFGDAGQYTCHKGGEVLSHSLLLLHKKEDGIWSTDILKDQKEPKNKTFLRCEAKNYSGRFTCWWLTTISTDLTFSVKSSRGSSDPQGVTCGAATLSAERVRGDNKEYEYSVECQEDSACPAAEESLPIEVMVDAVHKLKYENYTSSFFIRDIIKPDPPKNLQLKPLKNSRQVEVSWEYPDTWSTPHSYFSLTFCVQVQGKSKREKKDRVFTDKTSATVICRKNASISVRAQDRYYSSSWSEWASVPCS

B1: B7 (scFv, V domains shown)
VH: QVQLVQSGGGVVQPGRSLRLSCAASGFTFSSYGMHWVRQAPGKGLEWVAFIRYDGSNKYYADSVKGRFTISRDNSKNTLYLQMKSLRAEDTAVYYCKTHGSHDNWGQGTMVTVSS
VL: SYVLTQPPSVSGTPGQRVTISCSGGRSNIGSNTVKWYQQLPGTAPKLLIYGNDQRPSGVPDRFSGSKSGTSASLAITGVQAEDEADYYCQSYDRGDSNHDLFGTGTKVTVL
notes: scFv
B2: C5 (scFv, V domains shown)
VH: QVQLVQSGGGVVQPGRSLRLSCAASGFTFSSYGMHWVRQAPGKGLEWVAFIRYDGSNKYYADSVKGRFTISRDNSKNTLYLQMKSLRAEDTAVYYCKTHGSHDNWGQGTMVTVSS
VL: SYVLTQPPSVSGTPGQRVTISCSGGRSNIGSNTVKWYQQLPGTAPKLLIYGNDQRPSGVPDRFSGSKSGTSASLAITGVQAEDEADYYCQSYDRGPHTQPTFGTGTKVTVL
notes: scFv
B3: C3 (scFv, V domains shown)
VH: QVQLVQSGGGVVQPGRSLRLSCAASGFTFSSYGMHWVRQAPGKGLEWVAFIRYDGSNKYYADSVKGRFTISRDNSKNTLYLQMKSLRAEDTAVYYCKTHGSHDNWGQGTMVTVSS
VL: SYVLTQPPSVSGTPGQRVTISCSGGRSNIGSNTVKWYQQLPGTAPKLLIYGNDQRPSGVPDRFSGSKSGTSASLAITGVQAEDEADYYCQSYDSGVDPGPYFGTGTKVTVL
notes: scFv
B4: B11 (scFv, V domains shown)
VH: QVQLVQSGGGVVQPGRSLRLSCAASGFTFSSYGMHWVRQAPGKGLEWVAFIRYDGSNKYYADSVKGRFTISRDNSKNTLYLQMKSLRAEDTAVYYCKTHGSHDNWGQGTMVTVSS
VL: SYVLTQPPSVSGTPGQRVTISCSGGRSNIGSNTVKWYQQLPGTAPKLLIYGNDQRPSGVPDRFSGSKSGTSASLAITGVQAEDEADYYCQSYDRGITPGLAFGTGTKVTVL
notes: scFv
B5: C6 (scFv, V domains shown)
VH: QVQLVQSGGGVVQPGRSLRLSCAASGFTFSSYGMHWVRQAPGKGLEWVAFIRYDGSNKYYADSVKGRFTISRDNSKNTLYLQMKSLRAEDTAVYYCKTHGSHDNWGQGTMVTVSS
VL: SYVLTQPPSVSGTPGQRVTISCSGGRSNIGSNTVKWYQQLPGTAPKLLIYGNDQRPSGVPDRFSGSKSGTSASLAITGVQAEDEADYYCQSYDRGQTPSITFGTGTKVTVL
notes: scFv
B6: B10 (scFv, V domains shown)
VH: QVQLVQSGGGVVQPGRSLRLSCAASGFTFSSYGMHWVRQAPGKGLEWVAFIRYDGSNKYYADSVKGRFTISRDNSKNTLYLQMKSLRAEDTAVYYCKTHGSHDNWGQGTMVTVSS
VL: SYVLTQPPSVSGTPGQRVTISCSGGRSNIGSNTVKWYQQLPGTAPKLLIYGNDQRPSGVPDRFSGSKSGTSASLAITGVQAEDEADYYCQSYDRGLSDSPLFGTGTKVTVL
notes: scFv
B7: B9 (scFv, V domains shown)
VH: QVQLVQSGGGVVQPGRSLRLSCAASGFTFSSYGMHWVRQAPGKGLEWVAFIRYDGSNKYYADSVKGRFTISRDNSKNTLYLQMKSLRAEDTAVYYCKTHGSHDNWGQGTMVTVSS
VL: SYVLTQPPSVSGTPGQRVTISCSGGRSNIGSNTVKWYQQLPGTAPKLLIYGNDQRPSGVPDRFSGSKSGTSASLAITGVQAEDEADYYCQSYDRGRAAHPQFGTGTKVTVL
notes: scFv
B8: B8 (scFv, V domains shown)
VH: QVQLVQSGGGVVQPGRSLRLSCAASGFTFSSYGMHWVRQAPGKGLEWVAFIRYDGSNKYYADSVKGRFTISRDNSKNTLYLQMKSLRAEDTAVYYCKTHGSHDNWGQGTMVTVSS
VL: SYVLTQPPSVSGTPGQRVTISCSGGRSNIGSNTVKWYQQLPGTAPKLLIYGNDQRPSGVPDRFSGSKSGTSASLAITGVQAEDEADYYCQSYDRGHTAHLYFGTGTKVTVL
notes: scFv

The assay has as its target T1, human IL-12. Put plainly: SPR (BIAcore), IL-12 chip. An excerpt: The system utilizes the optical properties of SPR to detect alterations in protein concentrations within a dextran biosensor matrix. Proteins are covalently bound to the dextran matrix at known concentrations. […] To determine the off rate (koff), on rate (kₒₙ), association rate (Ka) and dissociation rate (Kd) constants, BIAcore kinetic evaluation software (version 2.1) was used.
One may read the koff as the first-order rate constant of dissociation. A low value points to a long-lived complex. B1 gave a koff of 0.00545 s⁻¹.
As for B2, the koff is 0.00391 s⁻¹.
Consider B3, for which the koff is 0.00334 s⁻¹.
Regarding B4, the koff was 0.00295 s⁻¹.
As for B5, the figure is 0.00242 s⁻¹; as for B6, 0.00604 s⁻¹; as for B7, 0.00866 s⁻¹.
In the case of B8, the dissociation rate constant (koff) amounted to 0.0024 s⁻¹.
